This is an account of results in paper PMC10878525.

Where two headings read alike, the source gives them in different places.

Experiment [1] concerns the target chicken sodium hydrogen exchanger isoform 1 (chNHE1), expressed on 293T cells (pCAF-chNHE1) (chicken). The experiment in a line: flow cytometry on cells; virus-cell binding: 293T cells transfected with pCAF-chNHE1 incubated with 50 MOI rescued virus 1 h on ice; stained with 4A3 anti-gp85 and FITC secondary, anti-FLAG co-staining.
The target is the same in experiment [2]. The experiment can be described thus: virus-cell binding assay read by RT-qPCR; 293T cells transfected with pCAF-chNHE1, exposed to rescued virus at MOI 50 for 1 h at 4 °C, washed five times; gp85 gene RT-qPCR against human GAPDH.
In experiment [3] the target is soluble chECL1 protein (chicken). The experiment in a line: SPR; Biacore 8K; chECL1 immobilised on a CM5 chip to about 100 RU; serial dilutions of gp85 flowed; 10 mM HEPES pH 7.2, 150 mM NaCl, 0.05% Tween-20; 1:1 binding model.
Experiment [4] has as its target chicken sodium hydrogen exchanger isoform 1 (chNHE1), expressed on 293T cells (pCAF-chNHE1) (chicken). The experiment can be described thus: flow cytometry on cells.
For experiment [5], the target named is chECL1, first extracellular loop of chNHE1, with a C-terminal HA tag (chicken). The experiment can be described thus: co-IP.
For experiment [6], the target named is chicken sodium hydrogen exchanger isoform 1 (chNHE1), expressed on 293T cells (pCAF-chNHE1) (chicken). The experiment in a line: flow cytometry on cells; protein-cell binding assay: purified gp85-Fc (0.5 mL of 200 ng/uL; 300, 200 and 50 ng/uL in Fig 2A) incubated 1 h on ice with 293T cells transfected with pCAF-chNHE1; anti-human IgG (Fc specific)-FITC, anti-FLAG co-staining.

The target in experiment [7] is soluble chECL1 protein (chicken). The experiment in a line: SPR; Biacore 8K; chECL1 immobilised on a CM5 chip to about 100 RU; serial dilutions of gp85 flowed; 10 mM HEPES pH 7.2, 150 mM NaCl, 0.05% Tween-20; 1:1 binding model. The source holds these as a separate data set.
The target of experiment [8] is chECL1, first extracellular loop of chNHE1, with a C-terminal HA tag (chicken). The experiment in a line: co-IP; 293T cells co-transfected with chECL1 (HA) and pCAF-gp85 plasmids for 48 h; lysates on anti-HA-agarose; blot with 4A3 and anti-HA; gp85 intensities normalised to input.

As to “Env of the recombinant virus rHPRS103-N123I (N123I in gp85), on virions (complex)”, the fold binding capacity against rHPRS103 (FACS) in experiment [1] turned out to be 1.27 fold. In experiment [2], this substance returned a fold binding capacity against rHPRS103 (RT-qPCR) of 7.14 fold.

In experiment [1], “Env of the recombinant virus rHPRS/JL3-1 (gp85 of JL08CH3-1 on the HPRS103 backbone), on virions (complex)” returned a fold binding capacity against rHPRS103 (FACS) of 1.29 fold. The substance also returned a fold binding capacity against rHPRS103 (RT-qPCR) in experiment [2] of 7.96 fold.

For the substance “JL08CH3-1-gp85 (CAG-JL3-1-gp85-Fc) (Fc fusion)”, in experiment [3], the Kd amounted to 0.109 µM. In experiment [4], the binding rate at 50 ng/μL is 58.5%, the binding rate at 200 ng/μL is 85% and the binding rate at 300 ng/μL came out at 87.9%.

For “JL08CH3-1-gp85 (pCAF-JL3-1-gp85) (natural protein)”, the fold binding capacity against HPRS103-gp85 in experiment [5] was determined as 1.3 fold.

Regarding “N123I-gp85 (CAG-N123I-gp85-Fc) (Fc fusion)”, the fold binding capacity against HPRS103-gp85 in experiment [6] amounted to 1.3 times. In addition, the Kd in experiment [7] was found to be 0.135 µM.

In turn, “N123I-gp85 (pCAF-N123I-gp85) (natural protein)” yielded a fold binding against HPRS103-gp85 in experiment [8] of 1.6 fold.

For the substance “N123I/V128F mutant gp85 (on CAG-sgp85-Fc backbone) (Fc fusion)”, the fold binding capacity against HPRS103-gp85 in experiment [6] was 1.3 times.

“soluble HPRS103-gp85 (CAG-sgp85-Fc) (Fc fusion)”: the Kd in experiment [3] worked out at 0.584 µM. Further, in experiment [4], the binding rate at 50 ng/μL stood at 9.7%, the binding rate at 200 ng/μL was 59.2% and the binding rate at 300 ng/μL is 70%. Moreover, the Kd in experiment [7] amounted to 0.547 µM.
